For assay [1], the target named is T1, MusROR1-His (mouse ROR1 ECD AA30-406 with C-terminal His tag) (mouse, UniProt Q9Z139 30-406).
T1 construct: range 30-406; Expressed in HEK293; also called mouse ROR1 antigen protein; not shown: C-terminal His tag
Kind of assay: ELISA, MusROR1-His coated at 2 µg/mL, goat anti-human Fc-HRP, OD450. As to the method: (§1) 96-well ELISA plate was coated with 2 μg/mL MusROR1-His (30 μL/well) at 4° C. overnight. The next day, the plate was washed three times with PBST and then blocked with 5% skim milk for 2 h. […] After washing with PBST for three times, the secondary antibody Goat-anti-human Fc-HRP (abcam, ab97225) was added and incubated for 1 h. After incubation, the plate was washed with PBST for 6 times and TMB (SurModics, TMBS-1000-01) was added for color development. According to the color development results, 2 M HCl was added to terminate the reaction, and the data were read at OD450 using a microplate reader (Molecular Devices, SpecterMax 190).

Assay [2] has as its target T2, human ROR1 on cells (full-length human ROR1 on huROR1-HEK293 cells; human ROR1 on A549 and HT-29 tumor cells) (human, UniProt Q01973 30-937).
T2 construct: whole, on cells; also called hROR1-HEK293T; A549 tumor cells
Kind of assay: flow cytometry (FACS) on A549 tumor cells, anti-human IgG-Fc secondary antibody, MFI. As to the method:
(§2) In this example, the binding activity of the antibody was evaluated using two types of cells, huROR1-HEK293 cells over-expressing human ROR1 and A549 tumor cells.
(§3) The specific method was as follows: huROR1-HEK293 cells or A549 cells in the logarithmic growth phase were prepared to a single-cell suspension, the density was adjusted to 1×10⁶ cells/mL, then 100 μL/well cells were added to a 96-well round-bottom plate, centrifuged at 4° C., 300 g, and the supernatant was removed. […] After the incubation, the cell mixture was washed three times and then 100 μL of 1:300 diluted secondary antibody Goat F(ab′)₂ Anti-Human IgG-Fc (abcam, ab98596) was added. The mixture was incubated at 4° C. in the dark for 30 min. After washing three times, the cells were detected by flow cytometry (Beckman, CytoFLEX AOO-1-1102).

For assay [3], the target named is T3, huROR2-His (human ROR2 ECD AA34-403 with C-terminal His tag) (human, UniProt Q01974 34-403).
T3 construct: range 34-403; Expressed in HEK293; also called human ROR2 antigen protein; not shown: C-terminal His tag
T3 sequence (Q01974 34-403 limits assumed): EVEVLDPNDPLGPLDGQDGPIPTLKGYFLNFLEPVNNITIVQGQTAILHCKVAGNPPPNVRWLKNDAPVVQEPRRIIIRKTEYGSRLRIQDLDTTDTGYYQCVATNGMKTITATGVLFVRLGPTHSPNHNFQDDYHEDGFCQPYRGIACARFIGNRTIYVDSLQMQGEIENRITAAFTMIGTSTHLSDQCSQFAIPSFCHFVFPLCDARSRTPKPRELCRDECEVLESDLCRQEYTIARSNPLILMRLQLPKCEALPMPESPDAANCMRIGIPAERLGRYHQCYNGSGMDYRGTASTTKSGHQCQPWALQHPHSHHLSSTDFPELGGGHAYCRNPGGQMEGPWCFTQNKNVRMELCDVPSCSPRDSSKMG
Briefly: ELISA, huROR2-His coated at 2 µg/mL, goat anti-human Fc-HRP, OD450. How it is done:
as §1, with “huROR2-His” for “MusROR1-His”, “TMBS-1000-0)” for “TMBS-1000-01)”

Assay [4] concerns the target T4, huROR1-His (human ROR1 ECD AA30-406 with C-terminal His tag, made in house) (human, UniProt Q01973 30-406).
T4 construct: range 30-406; Expressed in HEK293; also called antigen protein huROR1-His; not shown: C-terminal His tag
Briefly: Gator (BLI) Advanced Kinetics; antibody 30 nM, huROR1-His 480-7.5 nM. As to the method: First, Q buffer was prepared with PBS (10 mM pH7.4) (IgG-free, purchased from Jackson ImmunoResearch Lab)+0.02% Tween 20 (purchased from thermo)+0.2% BSA (purchased from source culture), and the stock solution of the test antibody was diluted with the prepared Q buffer to a working solution with a final concentration of 30 nM, the stock solution of the antigen protein huROR1-His was prepared with Q buffer into a working solution with multiple dilutions (480, 240, 120, 60, 30, 15, 7.5 nM), and detection and analysis was then performed with Gator instrument and its accompanying software, selecting the Advanced Kinetics experimental mode is used.

Assay [5] deals with T2, human ROR1 on cells (full-length human …). Kind of assay: flow cytometry (FACS) on huROR1-HEK293 cells, anti-human IgG-Fc secondary antibody, MFI. How it is done:
as §2, §3

Assay [6] deals with T4, huROR1-His (human ROR1 ECD AA30-406 …). Kind of assay: ELISA, huROR1-His coated at 2 µg/mL, goat anti-human Fc-HRP, OD450. As to the method: as §1, with “huROR1-His” for “MusROR1-His”

T2 sequence (Q01973 30-937): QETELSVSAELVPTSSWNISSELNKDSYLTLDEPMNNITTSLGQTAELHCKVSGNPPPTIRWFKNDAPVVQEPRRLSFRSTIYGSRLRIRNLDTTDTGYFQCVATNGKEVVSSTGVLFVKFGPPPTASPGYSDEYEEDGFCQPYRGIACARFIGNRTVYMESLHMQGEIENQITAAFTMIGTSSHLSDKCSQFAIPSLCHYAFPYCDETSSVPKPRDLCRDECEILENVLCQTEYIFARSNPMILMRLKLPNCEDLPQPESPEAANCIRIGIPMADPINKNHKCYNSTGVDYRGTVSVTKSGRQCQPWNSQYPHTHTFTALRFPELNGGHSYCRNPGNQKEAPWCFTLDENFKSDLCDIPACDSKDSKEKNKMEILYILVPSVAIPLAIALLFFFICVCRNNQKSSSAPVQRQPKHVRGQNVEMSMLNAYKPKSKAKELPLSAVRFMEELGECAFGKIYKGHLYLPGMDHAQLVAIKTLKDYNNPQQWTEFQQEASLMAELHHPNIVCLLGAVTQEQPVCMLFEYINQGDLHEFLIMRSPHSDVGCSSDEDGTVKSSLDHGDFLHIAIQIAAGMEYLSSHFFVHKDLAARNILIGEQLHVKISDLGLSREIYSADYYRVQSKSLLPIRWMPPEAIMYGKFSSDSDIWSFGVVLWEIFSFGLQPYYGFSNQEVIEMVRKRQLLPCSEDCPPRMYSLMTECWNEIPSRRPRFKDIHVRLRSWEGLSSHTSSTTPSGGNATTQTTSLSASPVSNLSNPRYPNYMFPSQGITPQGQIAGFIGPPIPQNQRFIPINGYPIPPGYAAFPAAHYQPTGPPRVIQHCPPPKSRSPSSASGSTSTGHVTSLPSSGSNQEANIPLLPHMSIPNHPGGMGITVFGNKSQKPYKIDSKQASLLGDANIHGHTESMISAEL
T4 sequence (Q01973 30-406 limits assumed): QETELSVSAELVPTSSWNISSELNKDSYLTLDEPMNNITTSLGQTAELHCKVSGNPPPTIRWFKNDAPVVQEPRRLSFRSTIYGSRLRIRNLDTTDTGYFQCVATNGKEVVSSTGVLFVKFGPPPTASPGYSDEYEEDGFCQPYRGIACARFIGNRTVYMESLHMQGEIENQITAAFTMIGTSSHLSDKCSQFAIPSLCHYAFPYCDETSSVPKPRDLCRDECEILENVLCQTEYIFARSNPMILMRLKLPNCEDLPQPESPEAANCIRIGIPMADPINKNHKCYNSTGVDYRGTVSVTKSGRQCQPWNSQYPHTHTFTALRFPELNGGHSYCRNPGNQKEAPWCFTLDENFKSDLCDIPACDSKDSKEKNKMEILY
T1 sequence (Q9Z139 30-406 limits assumed): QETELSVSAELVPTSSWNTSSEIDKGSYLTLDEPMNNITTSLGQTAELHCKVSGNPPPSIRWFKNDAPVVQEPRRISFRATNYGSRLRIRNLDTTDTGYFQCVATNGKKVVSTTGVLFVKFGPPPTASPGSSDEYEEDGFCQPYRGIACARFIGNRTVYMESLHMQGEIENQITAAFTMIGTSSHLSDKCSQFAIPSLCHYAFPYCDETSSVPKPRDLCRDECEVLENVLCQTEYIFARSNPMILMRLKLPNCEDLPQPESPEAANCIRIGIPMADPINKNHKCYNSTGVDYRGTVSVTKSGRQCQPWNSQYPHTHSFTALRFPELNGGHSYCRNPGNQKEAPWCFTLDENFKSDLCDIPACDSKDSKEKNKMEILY

B1: C42 (chimeric antibody) (antibody, human IgG1, kappa, V domains shown)
VH: EVMLVESGGGLVKPGGSLKLSCAASGFTFSNYIMSWVRQTPEKRLEWVATINSGGTNTYYPDSVKGRFTISRDNAKNSLYLQMNSLRSEDTALYYCTRYNGNYVWFAYWGQGTLVTVSA
VL: DIVLTQSPAIMSASPGEKVTMTCSASSSVSFIYWYQQKPGSSPRLLIYDTSNLASGVPVRFSGSGSGTSYSLTISRMEAEDAATYYCQQWSNYHFTFGSGTKLEIKR
notes: ExpiCHO expression
For orientation: EC50 (read off the curve) means the concentration giving half of the maximal effect. Read a low EC50 (read off the curve) as an effect from little substance. Broadly, the Kd is the equilibrium constant for the complex coming apart. A low value points to higher affinity. As usually defined, the koff is the first-order rate constant of dissociation. A higher koff goes with a short-lived complex. Usually kon stands for the second-order rate constant of association. A higher kon goes with fast association. For orientation: EC50 means the concentration at which the effect is half-maximal. Low readings indicate a more potent agent, high ones a less potent agent. Turning to B1, the binding result in assay [1] is “binds”; in assay [3], “no binding (tested: 1 µg/mL)”. For the same molecule, the 50% effective concentration (EC50 (read off the curve)) in assay [2] was around 0.03 µg/mL; in assay [5], around 0.2 µg/mL. The molecule also yielded a Kd in assay [4] of 29.6 nM. This molecule registered a koff in assay [4] of 0.00325 s⁻¹. The same molecule returned a kon in assay [4] of 110000 M⁻¹ s⁻¹. The EC50 in assay [6] was found to be 0.00203 µg/mL.

B2: B32 (chimeric antibody) (antibody, human IgG1, kappa, V domains shown)
VH: EVKLMESGGGLVKPGGSLKLSCAASGFAFSSYAMSWVRQTPDKRLEWVASINRDVTTYYPDSMKGRFTISRDNARNILYLQMSSLRSEDTAMYYCARGYYYGGGPYWHFDVWGAGTTVTVSS
VL: DIQITQSPSSMYASLGERVTITCKASQDINSYLTWFQQKPGKSPKTLIYRANRLVDGVPSRFSGSGSGQDYSLTISSLEYEDMGIYYCLQFDEFPYTFGGGTKLEIKR
notes: ExpiCHO expression
Consider B2, for which the “EC50 (read off the curve)” value in assay [1] was around 0.04 µg/mL. Further, the “EC50 (read off the curve)” value in assay [2] was around 0.02 µg/mL. Moreover, the binding result in assay [3] is “no binding (tested: 1 µg/mL)”. Further, in assay [4], the affinity, expressed as Kd, was 1.25 nM; the koff was determined as 0.000377 s⁻¹; the association rate constant (kon) came to 301000 M⁻¹ s⁻¹. Further, the “EC50 (read off the curve)” value in assay [5] is around 0.1 µg/mL. For the same molecule, the EC50 in assay [6] was 0.00575 µg/mL.

B3: B39 (chimeric antibody) (antibody, human IgG1, kappa, V domains shown)
VH: EVKLVESGGGLVKPGGSLKLSCAASGFTFSTYAMSWVRQTPEKRLEWVASISTGASTYYPDSVKGRFTISRDNARNILYLQMSSLRSEDTAMYYCAREETTTAALYYAMDYWGQGTSVTVSS
VL: DIKITQSPSSMYASLGERVTITCKASQDINNYLSWFQQKPGKSPKTLIYRANRLVDGVPSRFSGSGSGQDYSLTISSLEYEDMGIYYCLQFDEFPYTFGGGTKLEIKR
notes: ExpiCHO expression
In the case of B3, the binding result in assay [1] and in assay [3] was “no binding (tested: 1 µg/mL)” each time. Besides, the 50% effective concentration (EC50 (read off the curve)) in assay [2] is around 0.01 µg/mL; in assay [5], around 0.1 µg/mL. In addition, in assay [4], the Kd was 4.43 nM. Besides, the koff in assay [4] worked out at 0.00135 s⁻¹. This molecule displayed a kon in assay [4] of 304000 M⁻¹ s⁻¹. Also, in assay [6], the EC50 came to 0.00552 µg/mL.

B4: C77 (chimeric antibody) (antibody, human IgG1, kappa, V domains shown)
VH: EVKLVESGGGLVKPGGSLKLSCAASGFSFSNYAMSWVRQTPEKRLEWVASINSGVTTYYPDSVKGRFTVSRDNARNILYLHMTGLRSEDTAIYYCSRGYYYGGSPYWHFDVWGAGTTVTVSS
VL: DIQMTQSPSSMHASLGERVTITCKASQDINNYVSWFQQKPGKSPKTLIYRANRLVDGVPSRFSGSGSGQDYSFTISSLEYEDMGIYYCLQFDEFPYTFGGGTKLEIKR
notes: ExpiCHO expression
Consider B4, for which the binding result in assay [1] is given as “no binding (tested: 1 µg/mL)”. Also, the “EC50 (read off the curve)” value in assay [2] was around 0.02 µg/mL. Also, in assay [3], the binding result is on record as “no binding (tested: 1 µg/mL)”. Further, in assay [4], the Kd was found to be 2.47 nM, the koff worked out at 0.000774 s⁻¹ and the on-rate constant (kon) worked out at 314000 M⁻¹ s⁻¹. For the same molecule, the “EC50 (read off the curve)” value in assay [5] was around 0.1 µg/mL. The molecule further displayed an EC50 in assay [6] of 0.00603 µg/mL.

B5: B74 (chimeric antibody) (antibody, human IgG1, kappa, V domains shown)
VH: EVMLVESGGNLVKPGGSLKLSCAASGFTFSIYAMSWVRQTPEKRLEWVASISGGGTAYYPDSVKGRFTISRDNARNILYLQMSSLRSEDTAIYYCARGYYYGGSPYWHFDVWGAGTTVTVSS
VL: DIKMTQSPSSMYASLGERVTITCKASQDINSYLSWFQQKPGKSPKTLIYRANRLVDGVPSRFSGSGSGQDYSLTISSLEYEDIGIYYCLQIDEFPYTFGGGTKLEIKR
notes: ExpiCHO expression
For the molecule B5, the binding result in assay [1] and in assay [3] was “no binding (tested: 1 µg/mL)” each time. The “EC50 (read off the curve)” value in assay [2] was around 0.01 µg/mL; in assay [5], around 0.2 µg/mL. Besides, the affinity in assay [4], expressed as Kd, was 1.44 nM. Also, in assay [4], the koff was 0.000464 s⁻¹. Moreover, in assay [4], the kon turned out to be 323000 M⁻¹ s⁻¹. Moreover, the midpoint of the response in assay [6], the EC50, lay at 0.00513 µg/mL.

B6: M71 (chimeric antibody) (antibody, human IgG1, kappa, V domains shown)
VH: EVMLVESGGGLVKPGGSLKLSCAASGFTFSRYAMSWVRQTPEKRLEWVASINRGGTTYYPDSVKGRFTISRDNARDILYLQMSSLRSEDTAIYYCARDYYYGSSLYNGMDFWGQGTSVIVSS
VL: DIQMTQSPSSMYASLGERVTITCKASQDINSYLSWFQQKPGKSPKTLIYRANRLVDGVPSRFSGSGSGQDYSLTISSLESEDMGIYYCLQFDEFPYTFGGGTKLEIKR
notes: ExpiCHO expression
Take B6: the binding result in assay [1] is “no binding (tested: 1 µg/mL)”. In addition, the “EC50 (read off the curve)” value in assay [2] is around 0.01 µg/mL. In assay [3], the binding result is listed as “no binding (tested: 1 µg/mL)”. In addition, in assay [4], the Kd turned out to be 1.54 nM, the koff turned out to be 0.00054 s⁻¹ and the kon was 351000 M⁻¹ s⁻¹. Further, the “EC50 (read off the curve)” value in assay [5] is around 0.08 µg/mL. Also, the EC50 in assay [6] worked out at 0.0077 µg/mL.

B7: B34 (chimeric antibody) (antibody, human IgG1, kappa, V domains shown)
VH: EVQLVESGGGLVQPKGSLKLSCAASGFTFSRYAMSWVRQTPEKRLEWVASISTGGSPYYPDSVKGRFTISRDNARNILYLQMSSLKSEDTAMYYCARGYYYNSSPHWYFAVWGAGTSVTVSS
VL: DIQMTQSPSSLSASLGERVTITCKASQDINSYLSWFQQKPGKSPKTLIYRANRLVDGVPSRFSGSGSGQDYSLTISSLEYEDMGIYYCLQYDEFPYTFGGGTKLEIKR
notes: ExpiCHO expression
For the molecule B7, the binding result in assay [1] is given as “no binding (tested: 1 µg/mL)”. In addition, in assay [2], the “EC50 (read off the curve)” value is around 0.04 µg/mL. Also, in assay [3], the binding result is listed as “no binding (tested: 1 µg/mL)”. In assay [4], this molecule showed a Kd of 2.52 nM, a koff of 0.000609 s⁻¹ and a kon of 241000 M⁻¹ s⁻¹. Besides, the “EC50 (read off the curve)” value in assay [5] is around 0.2 µg/mL. In assay [6], the EC50 was 0.00628 µg/mL.

B8: C38 (chimeric antibody) (antibody, human IgG1, kappa, V domains shown)
VH: EVMLVESGGGLVRPGGSLKLSCAASGFTFSSYAMSWVRQTPDKRLEWVASINRDVTTYYPDSVKGRFTISRDNARNILYLQMSSLRSEDTAMYYCARDYYYGSSLYYGMDYWGQGTSVTVSS
VL: DIQMTQSPSSMHASLGERVTITCKASQDINNYVSWFQQKPGKSPKTLIYRANRLVDGVPSRFSGSGSGQDYSFTISSLEYEDMGIYYCLQFDEFPYTFGGGTKLEIKR
notes: ExpiCHO expression
For B8, the “EC50 (read off the curve)” value was around 0.03 µg/mL in assay [1], around 0.02 µg/mL in assay [2] and around 0.1 µg/mL in assay [5]. For the same molecule, the binding result in assay [3] was “no binding (tested: 1 µg/mL)”. This molecule showed a Kd in assay [4] of 1.34 nM. The koff in assay [4] was 0.000422 s⁻¹. The molecule also yielded an on-rate constant (kon) in assay [4] of 314000 M⁻¹ s⁻¹. The EC50 in assay [6] was found to be 0.00371 µg/mL.

(Values after patent US20250177546A1 (SANYOU BIOPHARMACEUTICALS, published 2025).)
